In patent US20200087363A1 (IMMATICS BIOTECHNOLOGIES, published 2020) one finds peptide exchange yield data, which are given here for 67 molecules.

Bounds are passed on as bounds.

In this assay the target is T1, HLA-B*44:05 (human).
T1 construct: also called peptide-receptive MHC class I molecule
As to the kind of experiment: UV peptide exchange, anti-b2m ELISA. Put shortly:
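Peptide-receptive HLA-B*44:05 monomers after UV-induced exchange were diluted 100-fold and captured on streptavidin-coated plates for 1 h at 37 °C. Bound complexes were detected with 2 µg/ml HRP-anti-β2m (1 h, 37 °C) and TMB, read at 450 nm. β2m signal reflects peptide-stabilized complex yield.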
For orientation: An ELISA detects its analyte on a solid surface through an enzyme-linked reagent.
For the molecule MESAKETRY, the peptide exchange yield lay in the range of 50 to 75%.

As to DEIFTNDRRW, the peptide exchange yield fell in the range of 20 to 50%.

TEHFLKKFF: the peptide exchange yield is 50 to 75%.

Consider AEHPDFSPCSF, for which the peptide exchange yield lay in the range of 50 to 75%.

AEKNRRDAETW: the peptide exchange yield was greater than 75%.

QELEQEVISL came in with a peptide exchange yield of 50 to 75%.

The molecule DELSVGRY yielded a peptide exchange yield of 20 to 50%.

AEPPILYSEY registered a peptide exchange yield of 20 to 50%.

For SEPQITVNF, the peptide exchange yield fell in the range of 50 to 75%.

Consider FELECPVKY, for which the peptide exchange yield is 50 to 75%.

The molecule TENPKKFKI displayed a peptide exchange yield of 50 to 75%.

The molecule HELALRQTV displayed a peptide exchange yield greater than 75%.

HEIPQESL returned a peptide exchange yield of 10 to 20%.

For the molecule RRHPSFKRF, the peptide exchange yield is 10 to 20%.

Regarding GEPVTQPGSLL, the peptide exchange yield lay in the range of 50 to 75%.

As for SETAVVNVTY, the peptide exchange yield was greater than 75%.

As to REVSVVDIL, the peptide exchange yield is greater than 75%.

KEVASNSEL yielded a peptide exchange yield of 50 to 75%.

EEINQGGRKY came in with a peptide exchange yield of 50 to 75%.

For SEADWLRFW, the peptide exchange yield is greater than 75%.

YEQLLKVVTW gave a peptide exchange yield greater than 75%.

In the case of TEFELLHQV, the peptide exchange yield was in the range of 50 to 75%.

The molecule KEFGIGDLVW returned a peptide exchange yield greater than 75%.

Regarding SESSSFLKV, the peptide exchange yield is 50 to 75%.

In the case of IEYENQKRL, the peptide exchange yield lay in the range of 20 to 50%.

For SQYPHTHTF, the peptide exchange yield fell in the range of 50 to 75%.

AETIFIVRL yielded a peptide exchange yield of 20 to 50%.

The molecule KELEATKQYL gave a peptide exchange yield of 50 to 75%.

Consider AEQEIMKKV, for which the peptide exchange yield is greater than 75%.

Take EEWEWIQKL: the peptide exchange yield was greater than 75%.

EMREERKF had a peptide exchange yield of 20 to 50%.

DEQLLLRF had a peptide exchange yield of 20 to 50%.

As to YEWEPFAEV, the peptide exchange yield was 10 to 20%.

Regarding SDDLRNVTW, the peptide exchange yield was greater than 75%.

Regarding QEDEQLLLRF, the peptide exchange yield fell in the range of 50 to 75%.

VEEEISRHY: the peptide exchange yield was in the range of 20 to 50%.

With EEFCFSVRF, the peptide exchange yield lay within 50 to 75%.

On to AEVQIARKL, for which the peptide exchange yield lay within 50 to 75%.

Regarding RLWPEPENW, the peptide exchange yield fell in the range of 20 to 50%.

On to AERIMFSDL, for which the peptide exchange yield was greater than 75%.

In turn, REKDLPNYNW had a peptide exchange yield greater than 75%.

As for SEQHSLPVF, the peptide exchange yield fell in the range of 50 to 75%.

The molecule SEHLFGTSY displayed a peptide exchange yield of 50 to 75%.

As to SEGTLPYSY, the peptide exchange yield lay in the range of 20 to 50%.

As to KQTEATMTF, the peptide exchange yield was 20 to 50%.

The molecule TEFQQIINL showed a peptide exchange yield greater than 75%.

Regarding KEWEREKAVSL, the peptide exchange yield lay in the range of 50 to 75%.

Take SEYQDGKEF: the peptide exchange yield lay within 20 to 50%.

In turn, REYEYDLKW showed a peptide exchange yield greater than 75%.

Consider DEIDKLTGY, for which the peptide exchange yield was in the range of 20 to 50%.

VEFPATRSL gave a peptide exchange yield of 50 to 75%.

The molecule AECILSKRL displayed a peptide exchange yield of 50 to 75%.

The molecule HENGVLTKF showed a peptide exchange yield of 20 to 50%.

With EEPKIDFRVY, the peptide exchange yield was 50 to 75%.

MEQQSQEY returned a peptide exchange yield of 50 to 75%.

For the molecule QELSSIRQF, the peptide exchange yield lay within 50 to 75%.

AENPLNIFYI came in with a peptide exchange yield of 50 to 75%.

In turn, GEDAHLTQY displayed a peptide exchange yield of 20 to 50%.

As for AAEPLVGQRW, the peptide exchange yield lay in the range of 20 to 50%.

In turn, RELLDFSSW had a peptide exchange yield greater than 75%.

Consider AENPLNIFY, for which the peptide exchange yield is greater than 75%.

DQVTVFLHF had a peptide exchange yield of 10 to 20%.

As for GEQPPEGQW, the peptide exchange yield lay in the range of 50 to 75%.

As for REESDWHYL, the peptide exchange yield lay within 50 to 75%.

Molecule EGEDAHLTQY showed a peptide exchange yield of 20 to 50%.

DEYLIPQQGFF: the peptide exchange yield was in the range of 20 to 50%.

RELGFTEATGW showed a peptide exchange yield greater than 75%.
